From the Immune Epitope Database (IEDB)

What was measured:
HLA-A*02:01 = assay: IEDB peptide-MHC binding, purified MHC/competitive/fluorescence; filed as Kd, often an IC50 or EC50 that approximates it; ≥ and ≤ were set here for values at or beyond the usual limits of such assays
HLA-B*15:01 [1] = assay: as above; conditions: source organism: Ectromelia virus
HLA-B*15:09 = assay: as above; conditions: source organism: Ectromelia virus
HLA-B*08:01 [2] = assay: as above; conditions: source organism: Ectromelia virus
HLA-A*69:01 = assay: IEDB peptide-MHC binding, purified MHC/direct/fluorescence; filed as Kd, often an IC50 or EC50 that approximates it; ≥ and ≤ were set here for values at or beyond the usual limits of such assays
HLA-B*58:01 = assay: as above
HLA-A*01:01 = assay: as above
HLA-B*07:02 [3] = assay: as above; conditions: source organism: Camelpox virus CMS
HLA-B*38:01 = assay: as above; conditions: source organism: Variola virus
HLA-B*27:05 = assay: as above
HLA-B*18:01 = assay: as above
HLA-B*51:01 = assay: as above; conditions: source organism: Camelpox virus CMS
HLA-B*57:01 = assay: as above
HLA-A*11:01 = assay: as above; conditions: source organism: Camelpox virus CMS
HLA-A*31:01 = assay: as above; conditions: source organism: Camelpox virus CMS
HLA-A*03:01 = assay: as above; conditions: source organism: Camelpox virus CMS
HLA-B*48:01 [4] = assay: as above
HLA-A*26:01 = assay: as above; conditions: source organism: Variola virus
HLA-B*15:17 [5] = assay: as above; conditions: source organism: Camelpox virus CMS
HLA-B*40:01 = assay: as above
HLA-B*73:01 = assay: as above; conditions: source organism: Toxoplasma gondii
HLA-B*07:02 [6] = assay: IEDB peptide-MHC binding, purified MHC/competitive/fluorescence; filed as Kd, often an IC50 or EC50 that approximates it; ≥ and ≤ were set here for values at or beyond the usual limits of such assays; conditions: source organism: Orthomarburgvirus marburgense
HLA-A*30:01 = assay: as above; conditions: source organism: Orthomarburgvirus marburgense
HLA-A*68:02 = assay: as above; conditions: source organism: Orthomarburgvirus marburgense
HLA-B*48:01 [7] = assay: as above; conditions: source organism: Orthomarburgvirus marburgense
HLA-B*15:17 [8] = assay: as above; conditions: source organism: Orthomarburgvirus marburgense
HLA-B*15:01 [9] = assay: IEDB peptide-MHC binding, purified MHC/direct/fluorescence; filed as Kd, often an IC50 or EC50 that approximates it; ≥ and ≤ were set here for values at or beyond the usual limits of such assays; conditions: source organism: Marburg virus - Musoke, Kenya, 1980
HLA-A*26:03 = assay: as above; conditions: source organism: Ravn virus - Ravn, Kenya, 1987
HLA-B*46:01 = assay: as above; conditions: source organism: Marburg virus - Musoke, Kenya, 1980
HLA-B*08:02 = assay: as above; conditions: source organism: Ravn virus - Ravn, Kenya, 1987
HLA-B*08:01 [10] = assay: as above; conditions: source organism: Ravn virus - Ravn, Kenya, 1987
HLA-B*39:01 = assay: as above; conditions: source organism: Marburg virus - Musoke, Kenya, 1980
[11] = source organism: Camelpox virus CMS
[12] = source organism: Toxoplasma gondii
[13] = source organism: Marburg virus - Musoke, Kenya, 1980

Work on VIARTHTAL yielded a Kd (HLA-A*02:01; source organism: Ectromelia virus) of no less than 20 µM, a Kd (HLA-B*15:01 [1]) of 0.785 µM and a Kd (HLA-B*15:09) of no less than 20 µM. The Kd (HLA-B*08:01 [2]) was 0.0518 µM, the Kd (HLA-A*69:01; [11]) was no less than 20 µM and the Kd (HLA-B*58:01; [11]) was no less than 20 µM. The Kd (HLA-A*01:01; [11]) was no less than 20 µM, the Kd (HLA-B*07:02 [3]) was 0.0583 µM and the Kd (HLA-B*38:01) was no less than 20 µM. It also gave a Kd (HLA-B*27:05; [11]) of no less than 20 µM, a Kd (HLA-B*18:01; [11]) of no less than 20 µM and a Kd (HLA-B*51:01) of no less than 20 µM. For the same sequence, the Kd (HLA-B*57:01; [11]) was no less than 20 µM, the Kd (HLA-A*11:01) was no less than 20 µM and the Kd (HLA-A*31:01) was no less than 20 µM. The Kd (HLA-A*03:01) was no less than 20 µM, the Kd (HLA-B*48:01 [4]; [11]) was no less than 20 µM and the Kd (HLA-A*26:01) was no less than 20 µM. It also gave a Kd (HLA-B*15:17 [5]) of no less than 20 µM and a Kd (HLA-B*40:01; [11]) of no less than 20 µM.

WRMVVRASF showed a Kd (HLA-B*27:05; [12]) of 0.008 µM, a Kd (HLA-B*48:01 [4]; [12]) of no less than 20 µM and a Kd (HLA-B*73:01) of 1.34 µM.

Sequence YHLGGIEGL has a Kd (HLA-A*02:01; source organism: Orthomarburgvirus marburgense) of 0.007 µM, a Kd (HLA-B*07:02 [6]) of no less than 20 µM and a Kd (HLA-A*30:01) of no less than 20 µM. The Kd (HLA-A*68:02) was 1.44 µM, the Kd (HLA-B*48:01 [7]) was 0.155 µM and the Kd (HLA-B*15:17 [8]) was no less than 20 µM. For the same sequence, the Kd (HLA-A*69:01; [13]) was 2.41 µM, the Kd (HLA-B*58:01; [13]) was no less than 20 µM and the Kd (HLA-B*15:01 [9]) was no less than 20 µM. The Kd (HLA-A*01:01; [13]) was no less than 20 µM, the Kd (HLA-A*26:03) was no less than 20 µM and the Kd (HLA-B*46:01) was no less than 20 µM. The Kd (HLA-B*08:02) was no less than 20 µM, the Kd (HLA-B*27:05; [13]) was no less than 20 µM and the Kd (HLA-B*18:01; [13]) was no less than 20 µM. The Kd (HLA-B*57:01; [13]) was no less than 20 µM, the Kd (HLA-B*08:01 [10]) was no less than 20 µM and the Kd (HLA-B*39:01) was 0.0403 µM. It also gave a Kd (HLA-B*40:01; [13]) of no less than 20 µM.
